Data: patent publication US20220127365A1 (DREN BIO, published 2022)

Legend:
[1] = target: T1, cynomolgus CD94 (cynomolgus monkey); experiment: flow cytometry titration of Alexa Fluor 647 conjugate (50 nM to 0.02 nM) on primary cynomolgus NK cells
T1 construct: whole, on cells; The construct expressed in HEK293 cells is not described further; also called cyno CD94; cynomolgus monkey CD94
Method: (§1) The ATX-130 antibody was produced in Expi-CHO cells cultured in the presence of kifunensine, a potent inhibitor of the mannosidase I enzyme, which is used to produce ATX-130-KIF mimicking non-fucosylated antibody. PBMCs of healthy donors were used for antibody staining ATX-130 antibody was titrated from 50 nM to 0.02 nM. Secondary anti-human antibody labeled with Alexa Fluor 647 was used to detect binding on CD3−CD56 bright NK cells. ATX-130-KIF antibody conjugated with Alexa Fluor 647 was titrated from 50 nM to 0.02 nM. T-LGLL cells were identified using CD3+CD16+ gating, while CLPD-NK cells were identified using CD3−CD16+ gating strategy. Titration curves and EC50 were generated using Graphpad Prism. […] Fluorescently labeled human IgG1-KIF isotype-KIF antibody was used as control. Arrows indicate ATX-130 and Human IgG1-KIF data points.
(§2) The affinity of the antibody clones was assessed by flow cytometry analysis. ATX-130-KIF mimicking non-fucosylated antibody was produced by culturing Expi-CHO cells cultured in the presence of kifunensine, a potent inhibitor of the mannosidase I enzyme. […] Thus, ATX-130 and ATX-130-KIF have similar binding affinity on primary human NK cells, cynomolgus NK cells, CLPD-NK cells, and T-LGLL cells.

[2] = target: T2, human CD94 (human, UniProt Q13241 1-179); experiment: flow cytometry titration of Alexa Fluor 647 conjugate on T-LGLL patient cells (CD3+CD16+); T-LGLL cells
T2 construct: whole, on cells; Endogenous CD94 on primary cells (healthy-donor PBMC NK cells, CLPD-NK and T-LGLL patient cells), where it pairs with NKG2A or NKG2C; also called KLRD1; Natural killer cells antigen CD94
T2 sequence (looked up): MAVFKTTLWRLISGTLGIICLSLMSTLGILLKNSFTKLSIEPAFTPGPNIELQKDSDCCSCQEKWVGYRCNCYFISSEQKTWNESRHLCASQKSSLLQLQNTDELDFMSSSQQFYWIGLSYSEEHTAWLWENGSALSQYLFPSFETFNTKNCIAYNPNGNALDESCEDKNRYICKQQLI
Method: as §1, §2

[3] = target: T2, human CD94; experiment: flow cytometry titration of Alexa Fluor 647 conjugate on CLPD-NK patient cells (CD3-CD16+); CLPD-NK cells
Method: as §1, §2

[4] = target: T2, human CD94; experiment: cell-based or functional assay
[5] = target: T1, cynomolgus CD94; experiment: cell-based or functional assay
[6] = target: T2, human CD94; experiment: flow cytometry titration (100 nM to 0.046 nM) on healthy-donor PBMCs, gated NK cells; EC50 from GraphPad Prism
Method: Peripheral blood monocuclear cells (PBMCs) of healthy donor HD-40 were used for antibody staining. 18H3 antibody was titrated from 100 nM to 0.046 nM in 1:3 dilutions and incubated with PBMCs. CD3 and CD56 antibodies were used to identify NK cells on the flow scatter. 18H3 antibody binding on […] and CD56 bright NK cells was used to assess affinity of 18H3. Titration curves and EC50 were generated using Graphpad Prism. […] Human IgG1 isotype control with secondary antibody (hIgG1) and goat (Fab)2 fragment anti-human Fcy-specific secondary antibody AF647 only (2ndary Ab) were used as controls.
Healthy donor PBMCs were seeded in 96 well plates at a density of 100,000 cells per well, incubated with human Fc block (Biolegend) and cell viability dye (Thermo Fisher) for 30 minutes on ice and protected from light. […] After incubation, the cells received a final wash in FACS buffer before quantification on the Cytoflex (Beckman Coulter). All data acquisition and fluorescence compensation were performed using CytoFlex (Beckman Coulter, Atlanta, Ga.). […] CD94 expression was then quantified on the CD3−CD56+NK cell population. […]
The affinity of the antibody clones was also assessed by flow cytometry analysis.

[7] = target: T2, human CD94; experiment: table column 'HLA-E blocking'; flow cytometry on NK cells of healthy donor PBMCs, antibody at saturating concentration, blocked ligand PE labeled HLA-E tetramer; percent blocking = 100-((percent HLA-E positive with antibody)/(percent HLA-E positive with isotype)*100)
Method: FIGS. 4A & 4B show the results of HLA-E tetramer blocking assays performed with anti-CD94 and commercially available anti-CD94 antibodies using flow cytometry. Healthy donor PBMCs were incubated with anti-CD94 antibodies. PE labeled HLA-E tetramer was then incubated with the cell and antibody mixture, and detected using flow cytometry. For HP-3B1, 131412, 12K45, DX22, 1M4 and 1E4, 2.5 μl of HLA-E tetramer reagent was used, while 5 μl was used for 18H3 and HP-3D9. Saturating concentrations of each antibody was used in this assay. The percent blocking was calculated as 100−((percent HLA-E positive for anti-CD94 antibody)/(percent HLA-E positive for isotype)*100).
(§3) Healthy donor PBMCs were seeded in 96-well plates at a density of 100,000 cells per well, incubated with human Fc block (Biolegend) and cell viability dye (Thermo Fisher) for 30 minutes on ice and protected from light. The cells were washed once with FACS buffer (PBS with 2% IgG low FBS). anti-CD94 antibodies at EC80 concentrations were incubated with cells for 30 minutes on ice and protected from light. After incubation with the anti-CD94 antibodies, the cells were washed and incubated with HLA-E tetramer PE (Creative Biolabs), anti-CD3 pacific blue-labelled, and anti-CD56 FITC-labelled antibodies (Biolegend) for 30 minutes on ice and protected from light. The cells then received a final wash in FACS buffer before quantification on the Cytoflex (Beckman Coulter). All data acquisition and fluorescence compensation were performed using CytoFlex (Beckman Coulter, Atlanta, Ga.). Data analysis was performed using FlowJo software. NK cells were identified through gating on lymphocytes on the forward and side scatter, followed by doublet and dead cell exclusion, and gated on the CD3−CD56+ population. HLA-E expression was then quantified on the CD3−CD56+NK cell population. Percent blocking was calculated as 100−((percent HLA-E positive for anti-CD94 antibody)/(percent HLA-E positive for isotype)*100).

[8] = target: T2, human CD94; experiment: competition assay, flow cytometry on NK cells of healthy donor PBMCs; 18H3-AF647 titrated in the presence of 1E4 at 11 µg/ml
Method: (§4) FIGS. 5A-5B show the results of competition assays performed for 18H3 anti-CD94 antibody evaluation. For all competition assays, 18H3 was incubated with PBMCs at a concentration of 1.3 μg/ml. […] Commercially available anti-CD94 antibodies were titrated and incubated with PBMCs concurrently with 18H3. […] To test competition between 18H3 and 1M4/1E4, 1M4 and 1E4 were incubated with cells at concentrations of 8.5 μg/ml and 11 μg/ml, respectively. 18H3 was fluorescently tagged with AF647 and incubated with cells concurrently with […].
(§5) Healthy donor PBMCs were seeded in 96-well plates at a density of 100,000 cells per well, incubated with human Fc block (Biolegend) and cell viability dye (Thermo Fisher) for 30 minutes on ice and protected from light. The cells were washed once with FACS buffer (PBS with 2% IgG low FBS). Unconjugated anti-CD94 antibodies at EC80 concentrations, CD3 FITC and CD56 PE antibodies, and APC-labeled anti-CD94 antibodies were incubated with cells for 30 minutes on ice and protected from light. The cells then received a final wash in FACS buffer before quantification on the Cytoflex (Beckman Coulter). All data acquisition and fluorescence compensation were performed using CytoFlex (Beckman Coulter, Atlanta, Ga.). Data analysis was performed using FlowJo software. […] Anti-CD94 APC was then quantified on the CD3−CD56+NK cell population. […]

[9] = target: T2, human CD94; experiment: competition assay, flow cytometry on NK cells of healthy donor PBMCs; 18H3-AF647 titrated, concurrently Mouse IgG1 control (or 1M4 at 8.5 µg/ml)
Method: as §4, §5

[10] = target: T2, human CD94; experiment: HLA-E tetramer blocking on healthy-donor PBMCs, flow cytometry; competitor HLA-E tetramer
Method: as §3
Healthy donor PBMCs were incubated with anti-CD94 antibodies. PE labeled HLA-E tetramer was then incubated with cells and antibody mixture and detected by flow cytometry.
Percent blocking was calculated as 100−((percent HLA-E positive for anti-CD94 antibody)/(percent HLA-E positive for isotype)*100). If an antibody blocked more than 20% of HLA-E binding, it was considered a ligand-blocking antibody.

[11] = target: T2, human CD94; experiment: flow cytometry titration (100 nM to 0.046 nM) on healthy-donor PBMCs, CD3-CD56bright NK cells; column 'Affinity on human NK cells (nM)'
[12] = target: T1, cynomolgus CD94; experiment: flow cytometry on HEK293 cells overexpressing cynomolgus CD94; unconjugated antibody in a dilution series, Alexa Fluor 647 anti-human secondary antibody
Method: For human NK cell binding, PBMCs were freshly isolated from healthy donors and incubated with unconjugated antibodies in a dilution series from 100 nM to 0.046 nM. Secondary anti-human antibody labeled with Alexa Fluor 647 was used to detect binding on CD3−CD56bright NK cells. For cynomolgus CD94 binding, HEK293 cells overexpressing cynomolgus CD94 were incubated with unconjugated antibodies in a dilution series from 100 nM to 0.046 nM. Secondary anti-human antibody labeled with Alexa Fluor 647 was used to detect binding on the cells.

B1: ATX-130-KIF (antibody, human IgG1, V domains shown)
VH: EVQLLESGGGLVKPGGSLRLSCAASGFTFSSYSMNWVRQAPGKGLEWVSSISTSSNFIYYADSVKGRFTISRDNAKNSLYLQMNSLRAEDTAVYYCARDLGRYYYYMDVWGKGTTVTVSS
VL: DIVMTQSPSSLSASVGDRVTITCRASQSISSWLAWYQQKPGKAPKSLIYAASSLQSGVPSKFSGSGSGTDFTLTISSLQPEDVATYYCQKYNSAPFTFGPGTKVDIK
notes: also called KIF-treated ATX-130; ATX-130-KIF Alexa Fluor 647
Binder B1 has an EC50 [1] of 1 nM, an EC50 [2] of 3 nM and an EC50 [3] of 1.4 nM. The “IC50 of CLPD-NK leukemic cell depletion, ADCC assay with patient PBMCs” value [4] was 0.6 ng/mL, the “IC50 of T-LGLL leukemic cell depletion, ADCC assay with patient PBMCs” value [4] was 0.2 ng/mL and the “IC50 of human NK cell depletion, ADCC assay with healthy donor PBMCs” value [4] was 0.8 ng/mL. For the same binder, the “IC50 of cynomolgus NK cell depletion, ADCC assay with cynomolgus PBMCs” value [5] was 0.3 ng/mL.

B2: anti-CD94 antibody 18H3 (antibody, V domains shown)
VH: EVQLVQSGAEVKKPGESLKISCKGSGYRFTSYWIGWVRQMPGKGLEWMGIIYPGDSDTRYSPSFQGQVIISADKSITTAFLQWSSLKASDTAMYYCARPFDYGGSPGYFDYWGQGTLVTVSS
VL: DIQMTQSPSTLSASVGDRVTITCRASQSIRSWLAWYQQKPGKAPKLLIYKASSLESGVPSRFSGSGSGTEFTLTISSLQPDDFATYYCQQYNTFWTFGQGTKVEIK
notes: Human variable domains from ATX-Gx Alloy transgenic mice; Screened as hybridoma supernatant; also called human IgG1 18H3
With B2 the EC50 [6] was 2.6 nM, the HLA-E blocking [7] was 0% and the “EC50 (read off the curve)” value [8] was about 3 nM. For the same binder, the “EC50 (read off the curve)” value [9] was about 0.8 nM.

B3: anti-CD94 antibody 1M4 (antibody, V domains shown)
VH: QLVESGGGLVQPGGSLRLACAASGFTFSNYAMNWVRQAPGKGLEWVSVISGSGDTTYCADSVKGRFTISRDNSKNTLHLQLNSLRAEDTAVYYCAKNCYGSGSYYNHFDYWGQGTLVTVSS
VL: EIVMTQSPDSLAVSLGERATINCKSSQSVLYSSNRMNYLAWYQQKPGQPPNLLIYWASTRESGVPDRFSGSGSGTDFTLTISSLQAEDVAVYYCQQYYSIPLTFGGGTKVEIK
With B3 the HLA-E blocking [7] was 0%.

B4: anti-CD94 antibody 1E4 (antibody, V domains shown)
VH: QVTLRESGPALVKPTQTLTLTCTFSGFSLSTSDLCVSWIRQPPGKALEWLALIDWNDDKYYSTSLQTRLTISKDTSKNQVVLTMTNMDPVDTATYYCARTIAAAGPYDAFDIWGQGTMVTVSS
VL: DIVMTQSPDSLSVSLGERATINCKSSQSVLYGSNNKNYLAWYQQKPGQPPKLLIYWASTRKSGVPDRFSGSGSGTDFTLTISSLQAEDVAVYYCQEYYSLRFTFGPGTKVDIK
notes: Hybridoma antibody from ATX-Gx Alloy transgenic mice; also called fucosylated 1E4
For B4, the HLA-E blocking [7] was 0%.

B5: anti-CD94 antibody ATX-126 (antibody, human IgG1, V domains shown)
VH: QVQLQESGGGLVQPGGSLKLSCAASGFTFSSYSMNWVRQAPGKGLEWVSSISTSSNFIYYADSVKGRFTISRDNSKNTLYLQMNSLRAEDTAVYYCVRDMGPFYSFYYMDVWGNGTTVTVSS
VL: DIQVTQSPATLSLSPGERATLSCRASQSVSSSYLAWYQQKPGQAPRLLIYGASNRATGIPARFSGSGSGTDFTLTISSLQPEDFATYYCLQHNSYPPTFGGGTKVDIK
For B5, the “percent HLA-E blocking” value [10] was 0%, the EC50 [11] was 2.52 nM and the “EC50 (read off the curve)” value [12] was about 2 nM.

B6: anti-CD94 antibody ATX-125 (antibody, human IgG1, V domains shown)
VH: QVQLQQSGPGLVKPSETLSLTCTVSGGSISSIIYYWGWIRQPPGKGLEWIGSIYYSGSTYYNPSLKSRVTISVDTSKNQFSLNLSSVTAADTAVYYCARLPLTGEFAFDIWGQGTMVTVSS
VL: EIVLTQSPATLSLSPGERATLSCRASQSVSTYLAWFQQKPGQAPRLLIYGASSRATGIPDRFSGSGSGTDFTLTISRLEPEDFAVYYCQQYGSSPITFGQGTRLEIK
For B6, the “percent HLA-E blocking” value [10] was 11%, the EC50 [11] was 4.63 nM and the “EC50 (read off the curve)” value [12] was about 2 nM.
